Where a SMILES comes first, the peptide text is derived from it.
B1: NGF: purified from male mouse submaxillary gland; β-NGF is a dimer of two identical 118 amino acid chains (protein, UniProt P01139 122-241, looked up)
Beta-nerve growth factor: SSTHPVFHMGEFSVCDSVSVWVGDKTTATDIKGKEVTVLAEVNINNSVFRQYFFETKCRASNPVESGCRGIDSKHWNSYCTTTHTFVKALTTDEKQAAWRFIRIDTACVCVLSRKATRRG
modifications: beta-NGF
notes: purified from male mouse submaxillary gland; β-NGF is a dimer of two identical 118 amino acid chains
B2: NGF denatured by reduction and carbamoylmethylation: NGF (30 μg) denatured by reduction and carbamoylmethylation, used as control (protein, UniProt P01139 122-241, looked up)
Beta-nerve growth factor: B1 Beta-nerve growth factor
modifications: beta-NGF reduced and carbamoylmethylated (denatured)
notes: NGF (30 μg) denatured by reduction and carbamoylmethylation, used as control

Tests used:
[1] = system: embryologic day 10 dorsal root ganglia neurons; assay: Nonspecific toxicity: NGF-independent neurite outgrowth in response to CNTF; format: cell-based, chick; conditions: up to 2.6 μmoles/ml, FIG. 3
Experimental: Potential nonspecific toxicity of peptide C5 (KGKE) was investigated with embryologic day 10 dorsal root ganglia neurons which also extend neurites in the presence of ciliary neurotrophic factor (CNTF) The effect of peptide C5 on NGF-independent neurite outgrowth was assessed.

[2] = Resistance to proteolysis during cell culture; format: in vitro ADME; conditions: 2.0 μmole/ml in culture medium with cells and 100 pg/ml NGF, 24 hr, HPLC
Experimental: The resistance of peptide C5 to proteolytic cleavage during cell culture was assessed. Quadruplicate wells were prepared each containing 2.0 μmole/ml of peptide in culture medium, 100 pg/ml NGF and cells as described above. After 24 hr in culture, 320 ul (4 wells×80 ul) of culture medium were collected. Fresh culture medium containing 2.0 μmole/ml of peptide was also prepared. Both samples of peptide-containing medium were filtered through a Centricon membrane (Amicon, Bedford) with a molecular weight cutoff of 10,000. 250 μl of filtrate was loaded onto a C18 uBondapak analytic HPLC column and run under the same conditions described above for peptide purification. The quantity of peptides in fresh compared to post-culture medium was determined by integration of their absorbance peaks. After 24 hr in culture, more than 80-85% of the initial quantity of peptide C5 was recovered..

[3] = system: dissociated embryonic chick dorsal root ganglia neurons; assay: NGF bioassay: support of neurite outgrowth/neuronal survival without NGF (agonist activity); format: cell-based; conditions: 24 hr culture
Excerpt: After synthesis, the peptides of the present invention may then be assayed to determine their activity in the NGF bioassay using dissociated embryonic chick dorsal root ganglia neurons according to published procedures, such as, for example, Riopelle et al, (1981) J Neurobiol 12:175-186 or Varon et al (1981) Dev Brain Res 1:73-87. […] If the peptide of interest is capable of inhibiting neuronal attachment, survival or neurite outgrowth in the presence of NGF, the peptide is defined as an antagonist. Similarly, if the peptide is capable of supporting neuronal attachment, survival or neurite outgrowth in the absence of NGF, it is defined as an agonist.
NGF bioassays using dissociated embryonic chick dorsal root ganglia neurons have been described (Varon et al, (1981) Dev Brain Res 1:73-87); Riopelle et al, (1981) J Neurobiol 12:175-186). Approximately 30 dorsal root ganglia were dissected from each developmental day 8 chick embryo. […] During this incubation, non-neurons more readily attach to the substratum; therefore, the resulting supernatant contained a relatively enriched neuronal population (80-90% neurons). […]
The results obtained were similar in each experiment; FIG. 1A represents the data obtained from the second experiment. […] Neurite outgrowth was assessed by phase contrast microscopy. The number of neurite-bearing cells in a fixed area of the well was counted. […]

ChAT activity = ChAT activity in brain regions after intraventricular NGF in neonatal hamsters; format: in vivo, hamster; conditions: for increase in septal ChAT activity relative to vehicle-injected animals: single 30 μg injection PD 7, sacrifice PD 9
Experimental: The birth of hamster litters was recorded as day zero. Hamsters were sacrificed at various postnatal ages and several brain regions were quickly dissected. The regions sampled included septum (basal forebrain), caudate-putamen, thalamus, hippocampus, frontolateral neocortex, and brainstem. Dissections were performed as described (Johnston et al, (1987) Neurochem Res 12:985-994). Subiculum was included with hippocampus. Caudal midbrain plus pons constituted the brainstem. For prenatal determinations,a timed-pregnancy animal was anesthetized with Nembutal (15 mg, i.p.) and individual embryos were removed and dissected. Whole forebrain was taken in place of frontolateral neocortex in prenatal animals. ChAT activity was determined in selected tissues as described (Mobley et al, (1985) Science 229:284-287).
NGF was prepared by ion-exchange chromatography and characterized as described in the first example. In experiments in which multiple injections were given, NGF (30 μg) was administered intraventricularly (Mobley et al, (1985) supra) on postnatal day (PD) 3, 5 and 7 and sacrifice was on PD 9. Vehicle-injected animals served as controls. In experiments in which a single injection was given, NGF (30 μg) was administered intraventricularly on PD 7 and animals were sacrificed on PD 9. Controls included animals treated with NGF (30 μg) denatured by reduction and carbamoylmethylation (Morris et al, (1971) Neurobiology 1:64-67), or injection vehicle alone.

β-PP mRNA = assay: β-protein precursor mRNA levels after NGF injection in neonatal hamsters; format: in vivo, hamster
PrP mRNA = conditions: hamster, in vivo
PrP = conditions: hamster, in vivo

Molecule	effect on number of neurons bearing neurites in response to CNTF [1]	initial quantity of peptide recovered after culture [2]	concentration giving maximum neurite outgrowth [3]	increase in septal ChAT activity (ChAT activity; 30 μg intraventricularly PD 3, 5, 7, sacrifice PD 9, FIG. 5A)	increase in septal ChAT activity relative to vehicle-injected animals (ChAT activity)	septal ChAT activity (mean±SEM) (ChAT activity; single 30 μg injection PD 7, sacrifice PD 9, n=4)	ChAT activity in caudate-putamen (ChAT activity; single injection, n=3)	increase in ChAT activity in caudate-putamen (ChAT activity; single injection, neonatal hamsters)	increase in β-PP mRNA levels relative to vehicle-injected animals (β-PP mRNA; single treatment on PD7, septum) [fold]	increase in β-PP in thalamus (β-PP mRNA; single treatment, FIG. 6)	effect on PrP mRNA levels in hippocampus (PrP mRNA)	effect on PrP mRNA levels in thalamus (PrP mRNA)	increase in PrP mRNA in caudate-putamen relative to vehicle-injected animals (PrP mRNA) [%]	increase in septal PrP mRNA levels (PrP mRNA)	increase in septal PrP mRNA relative to controls (PrP mRNA)	increase in PrP in septum (Western blot) (PrP) [fold]
NCCCC[C@H](NC(=O)CNC(=O)[C@@H](N)CCCCN)C(=O)N[C@@H](CCC(=O)O)C(N)=O [C5, KGKE-NH2] (H-KGKE-NH2)	no detectable effect	80-85%	–	–	–	–	–	–	–	–	–	–	–	–	–	–
B1	–	–	approximately 800 pg/ml	increased almost two-fold	100%	44.0±5.0 nmol acetylcholine (ACh) formed/hr/mg protein	92.4±6.3 nmol acetylcholine (ACh) forme	approximately 65%	4	no increase	no effect	no effect	70	~9 fold	approximately 10 fold	3.3
B2	–	–	–	–	No increase	–	–	–	–	–	–	–	–	No increase	–	–
